Blank lines part the entries; values can stand above or below the binder they belong to.
Columns and labels:
[1] = molecular target: T1, 4H1985-bN; assay: two-hybrid library CCNG1;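 also: natural log of median RNA to DNA barcode read ratio; higher means stronger binding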
T1 chain: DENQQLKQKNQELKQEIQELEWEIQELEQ

[2] = molecular target: T2, 4H3974-bN; assay: two-hybrid library CCNG1;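 also: natural log of median RNA to DNA barcode read ratio; higher means stronger binding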
T2 chain: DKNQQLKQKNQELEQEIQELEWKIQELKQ

[3] = molecular target: T3, 4H3462-bN; assay: two-hybrid library CCNG1;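 also: natural log of median RNA to DNA barcode read ratio; higher means stronger binding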
T3 chain: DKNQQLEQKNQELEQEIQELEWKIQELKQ

[4] = molecular target: T4, 4H626-bN; assay: two-hybrid library CCNG1;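 also: natural log of median RNA to DNA barcode read ratio; higher means stronger binding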
T4 chain: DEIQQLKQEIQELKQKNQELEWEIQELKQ

[5] = molecular target: T5, 4H3172-bN; assay: two-hybrid library CCNG1;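 also: natural log of median RNA to DNA barcode read ratio; higher means stronger binding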
T5 chain: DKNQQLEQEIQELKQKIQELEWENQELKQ

[6] = molecular target: T6, 4H619-bN; assay: two-hybrid library CCNG1;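 also: natural log of median RNA to DNA barcode read ratio; higher means stronger binding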
T6 chain: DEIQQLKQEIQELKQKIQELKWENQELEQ

[7] = molecular target: T7, 4H3129-bN; assay: two-hybrid library CCNG1
T7 chain: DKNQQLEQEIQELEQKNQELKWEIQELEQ

[8] = molecular target: T8, 4H584-bN; assay: two-hybrid library CCNG1
T8 chain: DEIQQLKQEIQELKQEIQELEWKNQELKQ

[9] = molecular target: T9, 4H3175-bN; assay: two-hybrid library CCNG1
T9 chain: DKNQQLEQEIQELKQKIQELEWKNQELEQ

[10] = molecular target: T10, 4H3613-bN; assay: two-hybrid library CCNG1
T10 chain: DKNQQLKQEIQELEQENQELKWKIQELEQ

[11] = molecular target: T11, 4H3631-bN; assay: two-hybrid library CCNG1
T11 chain: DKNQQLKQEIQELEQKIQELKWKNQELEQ

[12] = molecular target: T12, 4H3628-bN; assay: two-hybrid library CCNG1
T12 chain: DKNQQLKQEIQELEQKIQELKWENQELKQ

[13] = molecular target: T13, 4H906-bN; assay: two-hybrid library CCNG1
T13 chain: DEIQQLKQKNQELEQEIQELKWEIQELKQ

[14] = molecular target: T14, 4H3277-bN; assay: two-hybrid library CCNG1
T14 chain: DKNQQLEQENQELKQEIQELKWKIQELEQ

[15] = molecular target: T15, 4H3414-bN; assay: two-hybrid library CCNG1
T15 chain: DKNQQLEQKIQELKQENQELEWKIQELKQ

[16] = molecular target: T16, 4H3497-bN; assay: two-hybrid library CCNG1
T16 chain: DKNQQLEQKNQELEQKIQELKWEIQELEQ

[17] = molecular target: T17, 4H591-bN; assay: two-hybrid library CCNG1
T17 chain: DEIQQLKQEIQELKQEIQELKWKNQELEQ

[18] = molecular target: T18, 4H3817-bN; assay: two-hybrid library CCNG1
T18 chain: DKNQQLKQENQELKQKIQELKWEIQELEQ

[19] = molecular target: T19, 4H570-bN; assay: two-hybrid library CCNG1
T19 chain: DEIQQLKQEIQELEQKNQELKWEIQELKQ

[20] = molecular target: T20, 4H3162-bN; assay: two-hybrid library CCNG1
T20 chain: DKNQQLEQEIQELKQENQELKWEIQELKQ

[21] = molecular target: T21, 4H3858-bN; assay: two-hybrid library CCNG1
T21 chain: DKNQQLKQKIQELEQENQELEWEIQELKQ

[22] = molecular target: T22, 4H3926-bN; assay: two-hybrid library CCNG1
T22 chain: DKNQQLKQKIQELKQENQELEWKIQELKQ

[23] = molecular target: T23, 4H3298-bN; assay: two-hybrid library CCNG1
T23 chain: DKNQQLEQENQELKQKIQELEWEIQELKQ

[24] = molecular target: T24, 4H850-bN; assay: two-hybrid library CCNG1
T24 chain: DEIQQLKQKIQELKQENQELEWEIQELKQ

[25] = molecular target: T25, 4H3638-bN; assay: two-hybrid library CCNG1
T25 chain: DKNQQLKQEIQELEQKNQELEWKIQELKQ

[26] = molecular target: T26, P5mS; assay: two-hybrid library CC1; conditions: mean of both orientations
T26 chain: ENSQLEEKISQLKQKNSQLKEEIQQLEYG

[27] = molecular target: T27, P6SC1; assay: two-hybrid library CC1; conditions: mean of both orientations
T27 chain: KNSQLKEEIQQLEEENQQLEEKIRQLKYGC

[28] = molecular target: T28, P6SC2; assay: two-hybrid library CC1; conditions: mean of both orientations
T28 chain: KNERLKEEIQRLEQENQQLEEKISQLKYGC

[29] = molecular target: T29, P8mS; assay: two-hybrid library CC1; conditions: mean of both orientations
T29 chain: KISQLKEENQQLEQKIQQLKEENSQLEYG

[30] = molecular target: T30, P9; assay: two-hybrid library CC1; conditions: mean of both orientations
T30 chain: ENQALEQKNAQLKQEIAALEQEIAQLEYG

[31] = molecular target: T31, P5SC1; assay: two-hybrid library CC1; conditions: mean of both orientations
T31 chain: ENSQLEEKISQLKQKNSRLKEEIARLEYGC

[32] = molecular target: T32, P6mS; assay: two-hybrid library CC1; conditions: mean of both orientations
T32 chain: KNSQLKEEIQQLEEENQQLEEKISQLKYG

[33] = molecular target: T33, P6; assay: two-hybrid library CC1; conditions: mean of both orientations
T33 chain: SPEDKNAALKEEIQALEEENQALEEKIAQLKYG

[34] = molecular target: T34, P8; assay: two-hybrid library CC1; conditions: mean of both orientations
T34 chain: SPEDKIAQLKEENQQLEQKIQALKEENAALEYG

[35] = molecular target: T35, P5; assay: two-hybrid library CC1
T35 chain: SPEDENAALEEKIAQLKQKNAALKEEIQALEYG

[36] = molecular target: T36, P7; assay: two-hybrid library CC1; conditions: mean of both orientations
T36 chain: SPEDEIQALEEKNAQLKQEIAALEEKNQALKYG

[37] = molecular target: T37, P5SC2; assay: two-hybrid library CC1; conditions: mean of both orientations
T37 chain: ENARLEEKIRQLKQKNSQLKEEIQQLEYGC

[38] = molecular target: T38, P7mS; assay: two-hybrid library CC1; conditions: mean of both orientations
T38 chain: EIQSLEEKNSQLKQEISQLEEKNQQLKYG

[39] = molecular target: T39, P4bH1; assay: two-hybrid library CCNG1
T39 chain: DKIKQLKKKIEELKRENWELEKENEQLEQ

[40] = molecular target: T40, 4H491-bN; assay: two-hybrid library CCNG1
T40 chain: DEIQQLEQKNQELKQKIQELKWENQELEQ

[41] = molecular target: T41, 4H3629-AA; assay: two-hybrid library CCmax; conditions: mean of both orientations
T41 chain: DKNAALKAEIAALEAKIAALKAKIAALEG

[42] = molecular target: T42, 4H3782-AA; assay: two-hybrid library CCmax; conditions: mean of both orientations
T42 chain: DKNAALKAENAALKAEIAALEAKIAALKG

[43] = molecular target: T43, 4H1913-AA; assay: two-hybrid library CCmax
T43 chain: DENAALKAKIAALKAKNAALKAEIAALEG

[44] = molecular target: T44, 4H341-AA; assay: two-hybrid library CCmax; conditions: mean of both orientations
T44 chain: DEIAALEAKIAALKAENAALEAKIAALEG

[45] = molecular target: T45, 4H249-AA; assay: two-hybrid library CCmax; conditions: mean of both orientations
T45 chain: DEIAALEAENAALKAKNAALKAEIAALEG

[46] = molecular target: T46, 4H3939-AA; assay: two-hybrid library CCmax; conditions: mean of both orientations
T46 chain: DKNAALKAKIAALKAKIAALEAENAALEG

[47] = molecular target: T47, 4H3049-AA; assay: two-hybrid library CCmax; conditions: mean of both orientations
T47 chain: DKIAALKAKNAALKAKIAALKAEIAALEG

[48] = molecular target: T48, 4H3129-AA; assay: two-hybrid library CCmax
T48 chain: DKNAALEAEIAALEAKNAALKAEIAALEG

[49] = molecular target: T49, 4H2961-AA; assay: two-hybrid library CCmax; conditions: mean of both orientations
T49 chain: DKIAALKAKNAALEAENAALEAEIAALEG

[50] = molecular target: T50, 4H2621-AA; assay: two-hybrid library CCmax; conditions: mean of both orientations
T50 chain: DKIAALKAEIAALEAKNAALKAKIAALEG

[51] = molecular target: T51, 4H3969-AA; assay: two-hybrid library CCmax; conditions: mean of both orientations
T51 chain: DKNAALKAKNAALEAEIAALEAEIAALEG

[52] = molecular target: T52, 4H2728-AA; assay: two-hybrid library CCmax; conditions: mean of both orientations
T52 chain: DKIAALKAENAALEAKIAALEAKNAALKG

[53] = molecular target: T53, 4H446-AA; assay: two-hybrid library CCmax; conditions: mean of both orientations
T53 chain: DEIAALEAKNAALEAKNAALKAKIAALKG

[54] = molecular target: T54, 4H3414-AA; assay: two-hybrid library CCmax; conditions: mean of both orientations
T54 chain: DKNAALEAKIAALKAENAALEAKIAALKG

[55] = molecular target: T55, 4H63-AA; assay: two-hybrid library CCmax
T55 chain: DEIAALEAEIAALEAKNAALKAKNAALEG

[56] = molecular target: T56, 4H483-AA; assay: two-hybrid library CCmax; conditions: mean of both orientations
T56 chain: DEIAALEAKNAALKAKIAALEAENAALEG

[57] = molecular target: T57, 4H2903-AA; assay: two-hybrid library CCmax; conditions: mean of both orientations
T57 chain: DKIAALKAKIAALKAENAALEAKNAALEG

[58] = molecular target: T58, 4H2580-AA; assay: two-hybrid library CCmax; conditions: mean of both orientations
T58 chain: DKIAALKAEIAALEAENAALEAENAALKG

[59] = molecular target: T59, 4H3595-AA; assay: two-hybrid library CCmax; conditions: mean of both orientations
T59 chain: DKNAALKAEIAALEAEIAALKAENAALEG

[60] = molecular target: T60, 4H464-AA; assay: two-hybrid library CCmax; conditions: mean of both orientations
T60 chain: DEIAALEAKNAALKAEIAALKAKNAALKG

[61] = molecular target: T61, 4H380-AA; assay: two-hybrid library CCmax; conditions: mean of both orientations
T61 chain: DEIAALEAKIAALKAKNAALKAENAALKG

[62] = molecular target: T62, 4H2699-AA; assay: two-hybrid library CCmax; conditions: mean of both orientations
T62 chain: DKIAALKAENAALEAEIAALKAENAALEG

[63] = molecular target: T63, 4H2774-AA; assay: two-hybrid library CCmax; conditions: mean of both orientations
T63 chain: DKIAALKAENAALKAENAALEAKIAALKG

B2: P5 (peptide)
chain: T35 chain
interaction score [26]: -2.94
interaction score [27]: 0.186
interaction score [28]: 0.252
interaction score [29]: -2.62
interaction score [30]: -2.12
interaction score [31]: -2.93
interaction score [32]: 0.1
interaction score [33]: 0.207
interaction score [34]: -1.39
interaction score [35]: -2.89
interaction score [36]: -2.59
interaction score [37]: -2.84
interaction score [38]: -2.8

B3: 4H491-bN (peptide)
chain: DEIQQLEQKNQELKQKIQELKWENQELEQ
interaction score [39]: -0.336
interaction score [40]: -0.336

Results, then the binder that gave them:

interaction score [1]: -2.05
interaction score [2]: -1.17
interaction score [3]: -1.4
interaction score [4]: -0.889
interaction score [5]: -0.909
interaction score [6]: -1.93
interaction score [7]: -2.06
interaction score [8]: -1.72
interaction score [9]: -2.05
interaction score [10]: -1.86
interaction score [11]: -1.53
interaction score [12]: -1.17
interaction score [13]: -1.03
interaction score [14]: -1.75
interaction score [15]: -1.17
interaction score [16]: -1.28
interaction score [17]: -0.871
interaction score [18]: -0.872
interaction score [19]: -1.42
interaction score [20]: -1.41
interaction score [21]: -0.987
interaction score [22]: -1.25
interaction score [23]: -0.626
interaction score [24]: -1.6
interaction score [25]: -1.17
B1: 4H1985-bN (peptide)
chain: DENQQLKQKNQELKQEIQELEWEIQELEQ

interaction score [41]: -1.21
interaction score [42]: -1.16
interaction score [43]: -1.12
interaction score [44]: 0.862
interaction score [45]: -1.83
interaction score [46]: -1.9
interaction score [47]: -1.85
interaction score [48]: -0.895
interaction score [49]: -1.61
interaction score [50]: -0.536
interaction score [51]: -0.832
interaction score [52]: 0.365
interaction score [53]: -1.42
interaction score [54]: 1.8
interaction score [55]: -0.87
interaction score [56]: -1.02
interaction score [57]: -1.62
interaction score [58]: 0.453
interaction score [59]: -1.29
interaction score [60]: -0.535
interaction score [61]: -2.69
interaction score [62]: -0.293
interaction score [63]: -0.0687
B4: 4H1913-AA (peptide)
chain: DENAALKAKIAALKAKNAALKAEIAALEG
